From the Human Domainome abundance scans (Beltran et al. 2025)

B1: Neutrophil cytosol factor 2, residues 456 to 514; numbered along this chain, P19878 (parent)
chain: LKKGSQVEALFSYEATQPEDLEFQEGDIILVLSKVNEEWLEGECKGKVGIFPKVFVEDC
B2: COUP transcription factor 1, residues 83 to 159; numbered along this chain, P10589 (parent)
chain: HIECVVCGDKSSGKHYGQFTCEGCKSFFKRSVRRNLTYTCRANRNCPIDQHHRNQCQYCRLKKCLKVGMRREAVQRG

Variants of: B1
Test: abundance fitness (aPCA) (normalised: wild type 0, dead -1); higher = more abundant; growth selection in yeast, the domain comes from the species named
Conditions: Homo sapiens

Abundance fitness: each site, then its substitutions
I28: C -0.546; Y -0.546; N 0.043; S 0.096; W 0.025
A15: I -0.357; Y -0.617
V35: A -0.074; Q -0.302; N -0.517
A9: M -0.532; T -0.476; F -0.2; I -0.533
E25: M -0.264; N -0.015
K34: D -0.026
Q6: F 0.714
V56: R -0.637; T -0.457; N -0.439; H -0.624; F -0.255
F23: A -0.333

Variants of: B2
Test: as above
Conditions: Homo sapiens

Abundance fitness of substitutions, site by site:
A73: S -0.02; L -0.04; T -0.034; H 0.038; F 0.02; P -0.11; K -0.183; Q 0.063; R -0.275; G -0.025; D 0.112; N 0.064; Y -0.061; I -0.239; M -0.065; V -0.052
R76: C 0.082; G 0.161; N 0.123; D 0.221; W 0.007; Y 0.046; P -0.197; A -0.13; S -0.048; Q 0.083; E 0.11; H 0.094; V -0.009; L 0.024; M -0.047; T 0.025; F 0.097
R71: G -0.083; F 0.016; Y 0.089; S 0.018; N -0.034; K 0.104; I 0.084; V -0.019; D 0.017; C -0.062; P 0.023; W -0.085; Q 0.049; M 0.151; A 0.007; L -0.039; T 0.02; H -0.103
Q75: A 0.125; I -0.077; Y -0.219; C -0.07; W -0.119; G 0.084; F -0.026; S -0.023
